We go through 6 molecules from US20250026805A1 (DUCENTIS BIOTHERAPEUTICS, published 2025).

As a reminder, the Kd is the constant that tells how readily two partners part at equilibrium. Broadly, the koff is a measure of how fast the partners let go of each other. One may read the kon as a measure of how fast the partners come together. By t½ is commonly meant the time in which the quantity being followed falls by half.

The target of test [1] is T1, Recombinant Human CD200R, His tagged (human, UniProt Q8TD46 27-266, limits assumed).
T1 construct: Bought reagent; Flowed in solution as the analyte in the SPR; also called human CD200 receptor; CD200 receptor; not shown: His tag
T1 sequence (looked up): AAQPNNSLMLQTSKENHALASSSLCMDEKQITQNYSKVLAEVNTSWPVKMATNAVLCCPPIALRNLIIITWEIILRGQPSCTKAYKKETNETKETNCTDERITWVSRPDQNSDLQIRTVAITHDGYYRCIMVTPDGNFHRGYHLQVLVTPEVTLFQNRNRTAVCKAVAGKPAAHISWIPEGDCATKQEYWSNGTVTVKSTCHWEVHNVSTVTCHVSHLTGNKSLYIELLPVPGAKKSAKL
Briefly: SPR (Biacore T200), CD200-Fc captured on anti-human Fc, His-tagged CD200R flowed over it, 25 C, 1:1 Langmuir model. The method, then: (§1) Anti-human Fc was covalently immobilized on a BIAcore CM5 sensor chip by amine coupling using a GE Healthcare kit following the manufacturer's instructions. Maximum immobilization target was set between 10000-15000 RU. Flow cell 1 was used as a reference, with no immobilized ligand, to permit deduction of non-specific binding to the chip surface. The Fc-ligands were diluted to 0.5 μg/mL in BIAcore running buffer (HBS-EP+: 10 mM HEPES buffered saline containing 2 mM EDTA and 0.05% surfactant P-20). In the final immobilization step, wild-type CD200-Fc, mutant CD200-Fc and un-related control protein (Herceptin/Trastuzumab) were passed over the chip (using flow cells 2, 3 and 4 respectively), for 120 seconds, at a concentration giving rise to a minimum of 250 response units (RU), followed by stabilization of the surface for 120 seconds in running buffer. The CD200-Fc capture procedure was repeated for every CD200R concentration.
(§2) Following capture of the Fc-tagged proteins, CD200R (at different concentrations) was flowed over the captured CD200-Fc and control proteins for 120 seconds (to observe association), followed by 120 seconds of running buffer (to observe dissociation). The chip surface was then regenerated using 10 mM Glycine-HCl (pH 2) for 30 seconds (30 μl/min flow rate) followed by stabilization of the surface for 60 seconds with BIAcore running buffer before the next cycle. All CD200R concentrations were run in duplicate at the following concentrations: 1 μM, 500 nM, 250 nM, 125 nM, 62.5 nM, 31.25 nM, 15.6 nM and 0 nM.
(§3) The results were represented in sensorgrams plotted as response or resonance units (Rus) versus time. The experimental sensorgrams were analyzed in BIAevaluation software version 1.0 (GE Healthcare). […] Rate equations using standard parameters (e.g. ligand concentration, time) were used for iterative curve fitting. Closeness of fit was determined by algorithms provided by the manufacturer in the BIAevaluation software version 1.0.
(In general: SPR reads the build-up and loss of mass on a sensor chip optically.)

The target of test [2] is T1, Recombinant Human CD200R, His tagged. Briefly: SPR (Biacore T200), CD200-Fc captured on anti-human Fc, His-tagged CD200R flowed over it, 25 C, 1:1 binding model. The method, then:
as §1, §2, §3

The target is the same in test [3]. Briefly: SPR (Biacore T200), CD200-Fc captured on anti-human Fc, His-tagged CD200R flowed over it, 25 C, two state binding model. How it is done: as §1, with “concentration. […]” for “concentration.”
(§4) The results were represented in sensorgrams plotted as response or resonance units (Rus) versus time. The experimental sensorgrams were analyzed in BIAevaluation software version 1.0 (GE Healthcare). […] Closeness of fit was determined by algorithms provided by the manufacturer in the BIAevaluation software version 1.0.

Test [4] shares this target. Briefly: SPR (BIAcore T200, 25 C): CD200-Fc captured through anti-human Fc on a CM5 chip, His-tagged human CD200R flowed over it. Sensorgrams fitted with the 2 site (two state) binding model. Table 4 of the text gives 3.0 nM for this fit. How it is done: as §1, with “concentration. […]” for “concentration.”
as §4

Take “DS-155 wild-type CD200-Fc fusion protein (IgG4 S228P Fc)”: in test [1], the Kd was determined as 50 nM, the koff turned out to be 0.0251 s⁻¹, the kon was determined as 543000 M⁻¹ s⁻¹ and the t½ was found to be 0.467 min.

B1: DS-150 mutant CD200-Fc fusion protein (K130F, I131F, IgG2 Fc) (Fc fusion)
chain: QVQVVTQDEREQLYTPASLKCSLQNAQEALIVTWQKKKAVSPENMVTFSENHGVVIQPAYKDKINITQLGLQNSTITFWNITLEDEGCYMCLFNTFGFGFFSGTACLTVYVQPIVSLHYKFSEDHLNITCSATARPAPMVFWKVPRSGIENSTVTLSHPNGTTSVTSILHIKDPKNQVGKEVICQVLHLGTVTDFKQTVNKGERKCCVECPPCPAPPVAGPSVFLFPPKPKDTLMISRTPEVTCVVVDVSHEDPEVQFNWYVDGVEVHNAKTKPREEQFNSTFRVVSVLTVVHQDWLNGKEYKCKVSNKGLPAPIEKTISKTKGQPREPQVYTLPPSREEMTKNQVSLTCLVKGFYPSDISVEWESNGQPENNYKTTPPMLDSDGSFFLYSKLTVDKSRWQQGNVFSCSVMHEALHNHYTQKSLSLSPGK
notes: Purified as the dimeric form
As for B1, in test [1], the Kd came out at 2.6 nM, the koff was found to be 0.000226 s⁻¹, the kon came out at 87500 M⁻¹ s⁻¹ and the t½ is 51.2 min.

B2: DS-161 mutant CD200-Fc fusion protein (K130F, IgG2 Fc) (Fc fusion)
chain: QVQVVTQDEREQLYTPASLKCSLQNAQEALIVTWQKKKAVSPENMVTFSENHGVVIQPAYKDKINITQLGLQNSTITFWNITLEDEGCYMCLFNTFGFGFISGTACLTVYVQPIVSLHYKFSEDHLNITCSATARPAPMVFWKVPRSGIENSTVTLSHPNGTTSVTSILHIKDPKNQVGKEVICQVLHLGTVTDFKQTVNKGERKCCVECPPCPAPPVAGPSVFLFPPKPKDTLMISRTPEVTCVVVDVSHEDPEVQFNWYVDGVEVHNAKTKPREEQFNSTFRVVSVLTVVHQDWLNGKEYKCKVSNKGLPAPIEKTISKTKGQPREPQVYTLPPSREEMTKNQVSLTCLVKGFYPSDISVEWESNGQPENNYKTTPPMLDSDGSFFLYSKLTVDKSRWQQGNVFSCSVMHEALHNHYTQKSLSLSPGK
notes: Purified as the dimeric form
On to B2, for which, in test [1], the Kd was determined as 0.7 nM, the koff stood at 0.000593 s⁻¹, the on-rate (kon) was found to be 838000 M⁻¹ s⁻¹ and the t½ amounted to 19.5 min.

B3: DS-151 mutant CD200-Fc fusion protein (K130F, I131Y, IgG2 Fc) (Fc fusion)
chain: QVQVVTQDEREQLYTPASLKCSLQNAQEALIVTWQKKKAVSPENMVTFSENHGVVIQPAYKDKINITQLGLQNSTITFWNITLEDEGCYMCLFNTFGFGFYSGTACLTVYVQPIVSLHYKFSEDHLNITCSATARPAPMVFWKVPRSGIENSTVTLSHPNGTTSVTSILHIKDPKNQVGKEVICQVLHLGTVTDFKQTVNKGERKCCVECPPCPAPPVAGPSVFLFPPKPKDTLMISRTPEVTCVVVDVSHEDPEVQFNWYVDGVEVHNAKTKPREEQFNSTFRVVSVLTVVHQDWLNGKEYKCKVSNKGLPAPIEKTISKTKGQPREPQVYTLPPSREEMTKNQVSLTCLVKGFYPSDISVEWESNGQPENNYKTTPPMLDSDGSFFLYSKLTVDKSRWQQGNVFSCSVMHEALHNHYTQKSLSLSPGK
notes: Purified as the dimeric form
On to B3, for which, in test [1], the Kd turned out to be 1.4 nM, the koff amounted to 0.000181 s⁻¹, the on-rate constant (kon) was found to be 128000 M⁻¹ s⁻¹ and the t½ was found to be 63.8 min.

B4: DS-162 mutant CD200-Fc fusion protein (I131F, IgG2 Fc) (Fc fusion)
chain: QVQVVTQDEREQLYTPASLKCSLQNAQEALIVTWQKKKAVSPENMVTFSENHGVVIQPAYKDKINITQLGLQNSTITFWNITLEDEGCYMCLFNTFGFGKFSGTACLTVYVQPIVSLHYKFSEDHLNITCSATARPAPMVFWKVPRSGIENSTVTLSHPNGTTSVTSILHIKDPKNQVGKEVICQVLHLGTVTDFKQTVNKGERKCCVECPPCPAPPVAGPSVFLFPPKPKDTLMISRTPEVTCVVVDVSHEDPEVQFNWYVDGVEVHNAKTKPREEQFNSTFRVVSVLTVVHQDWLNGKEYKCKVSNKGLPAPIEKTISKTKGQPREPQVYTLPPSREEMTKNQVSLTCLVKGFYPSDISVEWESNGQPENNYKTTPPMLDSDGSFFLYSKLTVDKSRWQQGNVFSCSVMHEALHNHYTQKSLSLSPGK
notes: Purified as the dimeric form
Turning to B4, in test [2], the Kd turned out to be 3 nM, the dissociation rate constant (koff) is 0.00474 s⁻¹, the kon is 1.9e+06 M⁻¹ s⁻¹ and the t½ came to 2.43 min. In addition, the Kd in test [3] stood at 3 nM. Further, the Kd in test [4] turned out to be 3.1 nM.

B5: DS-149 mutant CD200-Fc fusion protein (K130Y, I131F, IgG2 Fc) (Fc fusion)
chain: QVQVVTQDEREQLYTPASLKCSLQNAQEALIVTWQKKKAVSPENMVTFSENHGVVIQPAYKDKINITQLGLQNSTITFWNITLEDEGCYMCLFNTFGFGYFSGTACLTVYVQPIVSLHYKFSEDHLNITCSATARPAPMVFWKVPRSGIENSTVTLSHPNGTTSVTSILHIKDPKNQVGKEVICQVLHLGTVTDFKQTVNKGERKCCVECPPCPAPPVAGPSVFLFPPKPKDTLMISRTPEVTCVVVDVSHEDPEVQFNWYVDGVEVHNAKTKPREEQFNSTFRVVSVLTVVHQDWLNGKEYKCKVSNKGLPAPIEKTISKTKGQPREPQVYTLPPSREEMTKNQVSLTCLVKGFYPSDISVEWESNGQPENNYKTTPPMLDSDGSFFLYSKLTVDKSRWQQGNVFSCSVMHEALHNHYTQKSLSLSPGK
notes: Purified as the dimeric form
Turning to B5, in test [1], the equilibrium dissociation constant (Kd) was found to be 1.9 nM, the koff stood at 0.000229 s⁻¹, the kon was determined as 132000 M⁻¹ s⁻¹ and the t½ worked out at 50.5 min.
